Changes are numbered by the printed parent chain. A value given as a limit tells only on which side of the number the result lay.

Experimental findings from patent publication US20190322750A1 (Y BIOLOGICS, published 2019) are described below.

The target in assay [1] is T1, PD-L1 on CHO cell line highly expressing PD-L1 (PD-1/PD-L1 blockade bioassay kit, promega J1250) (UniProt Q9NZQ7 19-290, limits assumed). The assay is described as follows: cell-based or functional assay.
In assay [2] the target is T2, PD-L1-His (human, UniProt Q9NZQ7).
T2 construct: recombinant, His-tagged; also called human PD-L1-His (S1479, Y-Biologics)
T2 sequence (Q9NZQ7 19-238 limits assumed): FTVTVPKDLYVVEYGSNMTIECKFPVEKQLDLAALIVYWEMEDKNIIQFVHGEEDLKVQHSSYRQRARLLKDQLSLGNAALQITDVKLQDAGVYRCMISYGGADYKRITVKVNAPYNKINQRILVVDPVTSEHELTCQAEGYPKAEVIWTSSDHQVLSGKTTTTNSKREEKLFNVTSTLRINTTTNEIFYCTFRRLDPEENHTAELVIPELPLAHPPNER
The assay is described as follows: competition ELISA: PD-L1-His pre-incubated with the antibody, then on coated PD-1-Fc (blocked ligand); % of max absorbance.

Assay [3] deals with M1. The assay is described as follows: ELISA on coated antigen, column M1. How it is done:
(§1) An antigen PD-L1 wild type (WT) or several mutants were coated at a density of 100 ng/well on a 96-well immunoplate at 4° C. for 16 hours and the wells were blocked with 4% skim milk dissolved in PBS. Each well was washed with 0.2 ml of PBS/T, and then a single clone scFv-phage (each […]) cultured for 16 hours was added in a dose of 100 μl to each well and reacted at room temperature for 2 hours. Again, each well was washed 4 times with 0.2 ml of PBS/T, and then the second antibody, anti-Fab, was diluted to 1/2000 and reacted at room temperature for 1 hour. After washing with 0.2 ml of PBS/T, color development was performed and absorbance was measured at 490 nm.
For orientation: An ELISA detects its analyte on a solid surface through an enzyme-linked reagent.

Assay [4] addresses M2. Briefly: ELISA on coated antigen, column M2. How it is done: as §1
For assay [5], the target named is M3. Briefly: ELISA on coated antigen, column M3.
In assay [6] the target is M4. The assay is described as follows: ELISA on coated antigen, column M4. How it is done: as §1
In assay [7] the target is M5. Briefly: ELISA on coated antigen, column M5. How it is done:
as §1

For assay [8], the target named is M6. The assay is described as follows: ELISA on coated antigen, column M6. How it is done: as §1
In assay [9] the target is M7. The assay is described as follows: ELISA on coated antigen, column M7.
Assay [10] addresses M8. Briefly: ELISA on coated antigen, column M8. How it is done:
as §1

The target of assay [11] is T3, WT (human, UniProt Q9NZQ7).
T3 construct: recombinant; also called hPD-L1; antigen PD-L1 wild type (WT)
T3 sequence (Q9NZQ7 19-238 limits assumed): as above
Briefly: ELISA on coated antigen, column WT. How it is done: as §1

Assay [12] concerns the target T4, ITGA6.
T4 construct: unrelated antigen column; all antibodies give 0.5 to 0.6
T4 sequence (P23229 whole entry, species assumed, looked up): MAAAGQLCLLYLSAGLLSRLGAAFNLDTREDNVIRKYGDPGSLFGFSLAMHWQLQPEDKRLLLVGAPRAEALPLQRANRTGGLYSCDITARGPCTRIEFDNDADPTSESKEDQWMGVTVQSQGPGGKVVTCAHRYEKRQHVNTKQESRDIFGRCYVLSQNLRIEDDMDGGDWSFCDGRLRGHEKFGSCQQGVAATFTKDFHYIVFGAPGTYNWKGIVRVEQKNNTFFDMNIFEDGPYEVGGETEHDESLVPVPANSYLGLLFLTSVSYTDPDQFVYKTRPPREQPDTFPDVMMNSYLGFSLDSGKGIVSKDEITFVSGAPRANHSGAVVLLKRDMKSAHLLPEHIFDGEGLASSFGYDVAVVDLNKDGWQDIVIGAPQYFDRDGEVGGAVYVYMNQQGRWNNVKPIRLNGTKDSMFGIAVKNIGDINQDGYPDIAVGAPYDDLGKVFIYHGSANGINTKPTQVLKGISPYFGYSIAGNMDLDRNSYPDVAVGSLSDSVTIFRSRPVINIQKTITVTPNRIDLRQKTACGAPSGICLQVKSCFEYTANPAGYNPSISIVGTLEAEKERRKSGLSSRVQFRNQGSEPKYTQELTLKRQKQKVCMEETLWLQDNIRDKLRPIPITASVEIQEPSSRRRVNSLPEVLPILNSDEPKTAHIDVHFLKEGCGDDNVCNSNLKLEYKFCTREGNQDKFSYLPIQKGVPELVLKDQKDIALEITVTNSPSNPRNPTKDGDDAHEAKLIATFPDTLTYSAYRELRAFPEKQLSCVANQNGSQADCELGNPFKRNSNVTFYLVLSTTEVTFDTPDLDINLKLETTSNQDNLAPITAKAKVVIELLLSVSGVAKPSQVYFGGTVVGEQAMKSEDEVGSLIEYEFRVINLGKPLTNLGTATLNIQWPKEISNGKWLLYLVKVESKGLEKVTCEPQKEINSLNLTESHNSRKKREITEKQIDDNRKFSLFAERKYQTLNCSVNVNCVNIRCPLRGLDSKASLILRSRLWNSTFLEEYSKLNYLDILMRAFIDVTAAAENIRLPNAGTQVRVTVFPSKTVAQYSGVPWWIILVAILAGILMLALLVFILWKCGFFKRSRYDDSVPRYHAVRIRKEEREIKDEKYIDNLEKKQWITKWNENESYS
Briefly: ELISA on coated antigen, column ITGA6.

In assay [13] the target is T5, mouse PD-L1 protein (mouse, UniProt Q9EP73 19-238, limits assumed). Briefly: ELISA on coated antigen, column mPD-L1. How it is done:
as §1

For assay [14], the target named is T1, PD-L1 on CHO cell line highly …. Briefly: cell-based or functional assay. This is another data set of the same source.
The target in assay [15] is T6, human PD-L1 over-expressed on HEK293E cells (human, UniProt Q9NZQ7 19-290).
T6 construct: whole, on cells; also called human PD-L1 (NM_014143.2)
T6 sequence (Q9NZQ7 19-290): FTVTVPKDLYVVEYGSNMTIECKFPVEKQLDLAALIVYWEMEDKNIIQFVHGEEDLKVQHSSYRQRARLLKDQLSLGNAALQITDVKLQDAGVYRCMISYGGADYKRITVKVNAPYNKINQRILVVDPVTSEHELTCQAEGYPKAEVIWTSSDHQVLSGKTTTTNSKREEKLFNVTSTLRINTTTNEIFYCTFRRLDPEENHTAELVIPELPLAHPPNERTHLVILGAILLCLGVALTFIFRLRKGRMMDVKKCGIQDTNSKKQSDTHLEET
The assay is described as follows: flow cytometry on HEK293E/PD-L1 cells, FITC anti-human IgG, serial dilutions; fit table. How it is done: 0.5 to 1×10⁶ cells per sample were prepared from the transformation cell pools highly expressing human PD-L1, and antibodies were serially diluted at a constant dilution rate and reacted with the prepared cells at 4° C. for 20 minutes. Then, the cells were washed three times with PBS (#LB001-02, Welgene) containing 2% fetal bovine serum and reacted at 4° C. for 20 minutes with an anti-human IgG antibody (#FI-3000, Vectorlabs) conjugated with a FITC (fluorescein isothiocyanate) fluorescent substance. Then, the cells were subjected to the same washing process as above and then suspended in 0.5 ml of PBS containing 2% FBS (#26140-079, Thermo Fisher) with an FACSCanto II flow cytometer (BD Biosciences, USA) as a flow cytometer (Table 11).
Background: A flow cytometer gives signals particle by particle.

In assay [16] the target is T7, PD-L1-hFc (human, UniProt Q9NZQ7 19-238).
T7 construct: extracellular domain; Made in HEK-293F cells, protein A purified; also called PD-L1 antigen; PD-L1 protein
T7 sequence (Q9NZQ7 other isoform, or with tags, fused parts or gaps limits assumed): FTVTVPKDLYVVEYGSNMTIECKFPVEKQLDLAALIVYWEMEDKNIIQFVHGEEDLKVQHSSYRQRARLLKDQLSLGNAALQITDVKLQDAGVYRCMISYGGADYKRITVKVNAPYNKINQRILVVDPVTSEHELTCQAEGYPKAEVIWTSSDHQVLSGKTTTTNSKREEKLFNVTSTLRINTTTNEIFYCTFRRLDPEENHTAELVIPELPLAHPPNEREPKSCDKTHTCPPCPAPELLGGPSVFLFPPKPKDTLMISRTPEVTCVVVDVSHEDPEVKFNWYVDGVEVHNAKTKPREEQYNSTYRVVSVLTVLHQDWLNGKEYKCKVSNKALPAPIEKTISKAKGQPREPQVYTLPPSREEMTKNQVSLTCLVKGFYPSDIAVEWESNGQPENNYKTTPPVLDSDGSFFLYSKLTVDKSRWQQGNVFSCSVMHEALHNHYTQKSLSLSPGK
The assay is described as follows: kinetics on PD-L1-hFc (legend paragraph 40; text names ProteOn XPR36, the sheet's sensorgrams have a nm axis).

Assay [17] deals with T5, mouse PD-L1 protein. Briefly: SPR (ProteOn XPR36); format of the mouse protein not stated.
Assay [18] concerns the target T8, cynomolgus PD-L1 protein (cynomolgus, UniProt G7PSE7 19-239).
T8 construct: also called monkey PD-L1
Briefly: SPR (ProteOn XPR36); format of the cynomolgus protein not stated; cynomolgus PD-L1.

In assay [19] the target is T7, PD-L1-hFc. The assay is described as follows: SPR (ProteOn XPR36), PD-L1-hFc immobilised on GLC chip, antibody as analyte; human PD-L1. How it is done:
A ProteOn XPR36 (BioRad) instrument was used. The GLC sensor chip (BioRad) was mounted on the instrument and washed with PBST buffer, and the carboxymethyldextran surface was activated with an EDC/sulfo-NHS mixed solution. PD-L1-hFc dissolved at a concentration of 5 ug/ml in a 10 mM sodium acetate buffer solution (pH 5.0) was injected and immobilized on the GLC sensor chip.
In order to deactivate the activated carboxyl groups that remain unreacted with the PD-L1 protein, 1 M ethanolamine was flowed and 10 mM glycine (pH 2.0) was injected in order to wash proteins that remain unbound to the sensor chip.

T1 sequence (Q9NZQ7 19-290 limits assumed): as the sequence (Q9NZQ7 19-290) above
T8 sequence (G7PSE7 entry or part of it): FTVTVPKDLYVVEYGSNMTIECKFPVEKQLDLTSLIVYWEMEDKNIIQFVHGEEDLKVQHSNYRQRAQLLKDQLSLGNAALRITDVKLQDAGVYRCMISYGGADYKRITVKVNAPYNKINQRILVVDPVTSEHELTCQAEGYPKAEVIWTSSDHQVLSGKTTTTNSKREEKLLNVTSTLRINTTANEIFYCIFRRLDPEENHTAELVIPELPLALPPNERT
T5 sequence (Q9EP73 19-238 limits assumed): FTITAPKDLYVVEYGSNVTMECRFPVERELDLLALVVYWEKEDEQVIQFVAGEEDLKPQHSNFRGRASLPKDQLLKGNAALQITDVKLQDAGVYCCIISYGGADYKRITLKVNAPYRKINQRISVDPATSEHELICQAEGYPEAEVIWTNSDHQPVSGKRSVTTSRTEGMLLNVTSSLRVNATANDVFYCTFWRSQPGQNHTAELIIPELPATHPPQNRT

B1: PD-L1-16E12 (WT/Lambda) (antibody, V domains shown)
VH: QMQLVQSGAEVKKPGSSVKVSCKASGGTFSSYAISWVRQAPGQGLEWMGRIIPILGIANYAQKFQGRVTITADKSTSTAYMELSSLRSEDTAVYYCAKPRDGYNLVAFDIWGQGTMVTVSS
VL: QLVLTQPPSVSGAPGQTVTISCTGSSSNIGAGYDVHWYQQLPGTAPKLLIYGNNNRPSGVPDRFSGSKSGALASLAITGLQAEDGADYHCQSYDNSLSAHAVFGTGTKVTVL
As a reminder, the IC50 is the point on the concentration scale where inhibition reaches its midpoint. Higher therefore signals a need for much substance. Turning to B1, the “Average *EC50 [nM], PD-1/PD-L1 blockade bioassay” value (shortened to “Average *EC50 [nM]”) in assay [1] worked out at 0.96 nM. In addition, in assay [2], the IC50 came out at 9.11 nM.

B2: PDL1-31B7 (antibody, V domains shown)
VH: B1 VH with M2V, Q6E, K98R, P99A, R100S, D101S, N104S, L105V, V106G
VL: QLVLTQPPSVSAPPGQKVTISCSGSSSNIGNNYVSWYQQLPGTAPKLLIYDNNERPSGIPDRFSASKSGTSATLGISGLQTGDEADYYCGTWDSSLSAGVFGGGTKLTVL
notes: Only FR/CDR pieces are tied to the clone
B2: the “Average *EC50 [nM]” value in assay [1] came to 1.74 nM. The “absorbance at 490 nm” value is 2.8 in assay [3]; 2.7 in [4]; 1.1 in [5]; 0.7 in assay [6]; 2.9 in assay [7]; 2.9 in assay [8]. In addition, the “absorbance at 490 nm” value in assay [9] is 3; in assay [10] it was 3; in [11], 2.5; in [12], 0.5; in assay [13] it was 1.8.

B3: PD-L1-16E12-LS-4F5 (Lambda) (antibody, V domains shown)
VH: B1 VH
VL: QLVLTQPPSVSGAPGQRVTISCTGSSSNIGAGYDVHWYQQLPGAAPKLLIYGDINRPSGVPDRFSGSKSGISASLAITGLQAEDEADYYCQSYDSSLSGGVFGGGTKLTVL
In the case of B3, the “Average *EC50 [nM]” value in [1] was 0.25 nM. The IC50 in assay [2] was 6.86 nM.

B4: PD-L1-16E12 (WT/kappa) (antibody, V domains shown)
VH: B1 VH
VL: B1 VL
notes: also called PD-L1-16E12-Kappa
By Kd is commonly meant the equilibrium constant for the complex coming apart. A higher Kd goes with weaker binding. In general, kon refers to the second-order rate constant of association. A lower kon goes with slow association. Consider B4, for which the “Average *EC50 [nM]” value in assay [1] was found to be 0.47 nM. In [14], the “EC50 (column 1차 EC50 [nM], first run; row 16E12, curve legend 16E12_Kappa)” value came to 0.41 nM and the “EC50 (column 2차 EC50 [nM], second run; row 16E12, curve legend 16E12_Kappa)” value stood at 0.45 nM. In assay [15], the Bmax came to 4140 and the Kd amounted to 4 nM. In addition, in assay [16], the dissociation constant Kd worked out at 0.0149 nM and the kon was found to be 268000 M⁻¹ s⁻¹. Besides, the IC50 in [2] worked out at 7.88 nM.

B5: PDL1-16E12 (LS/4F5) (antibody, V domains shown)
VH: B1 VH
VL: B3 VL
notes: also called 16E12(4F5); 16E12-4F5
Broadly, the koff is a measure of how fast the partners let go of each other. Lower therefore signals slow dissociation. B5: in assay [14], the “EC50 (first run)” value amounted to 0.3 nM and the “EC50 (second run)” value is 0.21 nM. In assay [17], this molecule gave a Kd of 0.808 nM, a koff of 0.000673 s⁻¹ and a kon of 833000 M⁻¹ s⁻¹. Also, in assay [18], the Kd is less than 0.035 nM, the koff was less than 1e-05 s⁻¹ and the kon is 287000 M⁻¹ s⁻¹. For the same molecule, in assay [19], the Kd was less than 0.032 nM, the koff is less than 1e-05 s⁻¹ and the kon was 310000 M⁻¹ s⁻¹. In assay [15], this molecule had a Bmax of 4100 and a Kd of 1.46 nM. In addition, in assay [16], binding was characterised by a dissociation constant (Kd) of 0.00853 nM, the koff amounted to 2.18e-06 s⁻¹ and the kon stood at 256000 M⁻¹ s⁻¹.

B6: PDL1-11A7 (antibody, V domains shown)
VH: QVQLVQSGAEVKKPGASVKVSCKVSGYTLTELSMHWVRQAPGKGLEWMGGFDPEDGETIYAQKFQGRVTMTEDTSTDTAYMELSSLRSEDTAVYYCARDPWGGYYGMDVWGQGTTVTVSS
VL: DIQMTQSPSSVSASVGDRVTINCRASQGIRTWLAWYQQKPGKAPKLLIYAASNLQSGVPSRFSGSGSGTDFTLTIASLQPEDFATYYCQQANSFPLTFGGGTKVEIK
notes: as for B2
B6: in assay [1], the “Average *EC50 [nM]” value is 3.25 nM. The “absorbance at 490 nm” value worked out at 2.5 in [3]; 2.3 in assay [4]; 0.8 in assay [5]; 2.4 in assay [6]; 2.5 in assay [7]; 2.5 in assay [8]. Besides, the “absorbance at 490 nm” value worked out at 2.5 in [9]; 0.4 in assay [10]; 2.5 in assay [11]; 0.5 in [12]; 0.1 in assay [13]. Also, the binding result in [13] is on record as “no binding”.
